Experimental data as given in IntAct's records for PubMed 31515488.

What was measured:
[1] = target: ppla_human PLN (UniProt P26678)
[2] = target: vatl_human ATP6V0C (UniProt P27449)
[3] = target: mal_human MAL (UniProt P21145)
[4] = target: emp3_human EMP3 (UniProt P54852)
[5] = target: sc22a_human SEC22A (UniProt Q96IW7)
[6] = target: tri23_human TRIM23 (UniProt P36406)
[7] = target: hnrl1_human HNRNPUL1 (UniProt Q9BUJ2)
[8] = target: pdli7_human PDLIM7 (UniProt Q9NR12)
[9] = target: erep1_human ENTREP1 (UniProt Q15884)
Chain of erep1_human ENTREP1 (Q15884 whole entry): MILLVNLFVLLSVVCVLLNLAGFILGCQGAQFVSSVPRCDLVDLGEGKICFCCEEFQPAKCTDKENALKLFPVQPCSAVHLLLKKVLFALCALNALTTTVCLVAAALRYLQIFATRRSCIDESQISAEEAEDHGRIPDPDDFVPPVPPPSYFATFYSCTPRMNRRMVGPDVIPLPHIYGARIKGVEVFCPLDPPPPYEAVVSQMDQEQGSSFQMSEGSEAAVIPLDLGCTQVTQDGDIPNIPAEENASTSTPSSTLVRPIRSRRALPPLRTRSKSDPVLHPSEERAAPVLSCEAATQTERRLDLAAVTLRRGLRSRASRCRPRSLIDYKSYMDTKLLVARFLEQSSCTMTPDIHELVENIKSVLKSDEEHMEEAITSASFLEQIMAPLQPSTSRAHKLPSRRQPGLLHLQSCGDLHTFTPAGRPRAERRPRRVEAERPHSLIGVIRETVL

[10] = target: fxl18_human FBXL18 (UniProt Q96ME1)
Chain of fxl18_human FBXL18 (Q96ME1 whole entry): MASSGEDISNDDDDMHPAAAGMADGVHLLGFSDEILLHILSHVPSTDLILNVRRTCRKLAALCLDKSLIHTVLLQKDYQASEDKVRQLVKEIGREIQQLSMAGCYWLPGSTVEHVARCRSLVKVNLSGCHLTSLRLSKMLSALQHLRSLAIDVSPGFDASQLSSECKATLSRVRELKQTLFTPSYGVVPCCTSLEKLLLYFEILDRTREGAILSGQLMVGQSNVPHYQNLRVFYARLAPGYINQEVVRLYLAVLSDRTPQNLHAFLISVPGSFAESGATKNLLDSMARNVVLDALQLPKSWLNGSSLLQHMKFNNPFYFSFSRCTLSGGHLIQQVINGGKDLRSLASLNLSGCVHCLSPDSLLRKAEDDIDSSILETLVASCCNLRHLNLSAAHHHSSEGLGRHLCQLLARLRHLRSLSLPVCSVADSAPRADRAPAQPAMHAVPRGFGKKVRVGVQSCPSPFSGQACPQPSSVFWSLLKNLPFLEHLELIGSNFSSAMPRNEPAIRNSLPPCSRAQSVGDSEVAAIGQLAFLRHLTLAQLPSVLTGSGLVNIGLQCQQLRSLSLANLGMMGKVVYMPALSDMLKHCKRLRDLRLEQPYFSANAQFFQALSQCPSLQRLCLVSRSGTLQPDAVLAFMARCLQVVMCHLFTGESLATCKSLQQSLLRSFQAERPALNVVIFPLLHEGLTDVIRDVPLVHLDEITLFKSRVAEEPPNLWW

[11] = target: frih_human FTH1 (UniProt P02794)
[12] = target: scel_human SCEL (UniProt O95171)
[13] = target: pp16a_human PPP1R16A (UniProt Q96I34)
Chain of pp16a_human PPP1R16A (Q96I34 whole entry): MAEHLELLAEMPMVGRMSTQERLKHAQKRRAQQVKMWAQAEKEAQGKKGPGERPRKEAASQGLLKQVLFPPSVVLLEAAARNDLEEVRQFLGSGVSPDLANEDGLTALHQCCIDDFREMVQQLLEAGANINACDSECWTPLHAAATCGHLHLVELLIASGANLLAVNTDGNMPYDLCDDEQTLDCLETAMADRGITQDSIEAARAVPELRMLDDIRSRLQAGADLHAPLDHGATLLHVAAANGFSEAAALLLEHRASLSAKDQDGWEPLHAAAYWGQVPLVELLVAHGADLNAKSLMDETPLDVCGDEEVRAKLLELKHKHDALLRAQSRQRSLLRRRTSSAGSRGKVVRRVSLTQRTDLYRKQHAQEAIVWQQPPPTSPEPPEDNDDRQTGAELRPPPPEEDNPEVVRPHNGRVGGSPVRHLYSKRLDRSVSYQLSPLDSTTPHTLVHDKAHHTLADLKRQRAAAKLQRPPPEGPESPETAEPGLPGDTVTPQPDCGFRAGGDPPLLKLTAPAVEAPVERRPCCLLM

[14] = target: echp_human EHHADH (UniProt Q08426)
Chain of echp_human EHHADH (Q08426 whole entry): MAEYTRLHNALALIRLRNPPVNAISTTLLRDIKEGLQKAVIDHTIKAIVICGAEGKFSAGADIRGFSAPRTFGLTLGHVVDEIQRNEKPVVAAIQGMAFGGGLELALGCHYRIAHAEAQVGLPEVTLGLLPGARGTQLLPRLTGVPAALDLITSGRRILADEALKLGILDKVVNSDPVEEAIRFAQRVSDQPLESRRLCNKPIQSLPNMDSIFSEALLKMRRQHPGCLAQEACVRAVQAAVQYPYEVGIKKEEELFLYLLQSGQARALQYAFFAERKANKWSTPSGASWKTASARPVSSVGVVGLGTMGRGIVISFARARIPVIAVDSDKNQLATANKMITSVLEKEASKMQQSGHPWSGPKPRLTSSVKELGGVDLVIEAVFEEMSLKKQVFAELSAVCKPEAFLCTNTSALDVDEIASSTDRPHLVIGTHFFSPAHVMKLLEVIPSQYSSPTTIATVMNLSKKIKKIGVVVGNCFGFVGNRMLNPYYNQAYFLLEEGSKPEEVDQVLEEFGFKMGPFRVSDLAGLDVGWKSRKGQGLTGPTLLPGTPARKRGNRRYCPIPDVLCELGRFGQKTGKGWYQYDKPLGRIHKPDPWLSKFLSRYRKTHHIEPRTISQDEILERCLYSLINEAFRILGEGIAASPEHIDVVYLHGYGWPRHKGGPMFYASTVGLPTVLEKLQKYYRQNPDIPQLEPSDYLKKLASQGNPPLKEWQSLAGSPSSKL

[15] = target: dpolb_human POLB (UniProt P06746)
[16] = target: sf3a3_human SF3A3 (UniProt Q12874)
Chain of sf3a3_human SF3A3 (Q12874 whole entry): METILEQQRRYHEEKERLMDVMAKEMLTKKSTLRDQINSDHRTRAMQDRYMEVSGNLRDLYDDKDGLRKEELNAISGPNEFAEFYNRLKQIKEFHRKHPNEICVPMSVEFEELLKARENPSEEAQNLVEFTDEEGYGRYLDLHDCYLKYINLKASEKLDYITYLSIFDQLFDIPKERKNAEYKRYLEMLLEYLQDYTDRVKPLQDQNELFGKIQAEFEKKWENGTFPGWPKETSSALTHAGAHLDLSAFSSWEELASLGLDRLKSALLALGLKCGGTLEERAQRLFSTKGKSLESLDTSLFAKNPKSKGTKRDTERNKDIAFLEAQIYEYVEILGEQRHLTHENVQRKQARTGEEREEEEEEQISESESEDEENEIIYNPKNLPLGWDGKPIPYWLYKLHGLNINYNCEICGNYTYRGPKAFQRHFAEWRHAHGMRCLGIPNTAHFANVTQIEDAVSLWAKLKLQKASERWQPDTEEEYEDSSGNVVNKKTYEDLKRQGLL

[17] = target: FAM90A1 (UniProt Q86YD7)
Chain of FAM90A1 (Q86YD7 whole entry): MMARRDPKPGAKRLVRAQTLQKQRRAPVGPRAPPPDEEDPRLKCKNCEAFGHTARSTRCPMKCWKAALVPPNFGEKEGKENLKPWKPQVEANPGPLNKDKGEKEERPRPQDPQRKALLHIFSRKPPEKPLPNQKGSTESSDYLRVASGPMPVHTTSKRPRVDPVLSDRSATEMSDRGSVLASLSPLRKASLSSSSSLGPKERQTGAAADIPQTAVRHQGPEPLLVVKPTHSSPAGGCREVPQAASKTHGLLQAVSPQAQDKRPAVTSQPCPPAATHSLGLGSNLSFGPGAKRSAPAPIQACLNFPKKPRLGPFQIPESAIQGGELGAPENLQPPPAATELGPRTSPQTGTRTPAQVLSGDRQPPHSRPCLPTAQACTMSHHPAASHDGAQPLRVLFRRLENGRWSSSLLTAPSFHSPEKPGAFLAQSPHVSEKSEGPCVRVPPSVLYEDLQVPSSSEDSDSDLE

Measured: effect of a mutation on the interaction

Chain of Ectodysplasin-A (Homo sapiens), Q92838 R153H (Q92838 whole entry R153H): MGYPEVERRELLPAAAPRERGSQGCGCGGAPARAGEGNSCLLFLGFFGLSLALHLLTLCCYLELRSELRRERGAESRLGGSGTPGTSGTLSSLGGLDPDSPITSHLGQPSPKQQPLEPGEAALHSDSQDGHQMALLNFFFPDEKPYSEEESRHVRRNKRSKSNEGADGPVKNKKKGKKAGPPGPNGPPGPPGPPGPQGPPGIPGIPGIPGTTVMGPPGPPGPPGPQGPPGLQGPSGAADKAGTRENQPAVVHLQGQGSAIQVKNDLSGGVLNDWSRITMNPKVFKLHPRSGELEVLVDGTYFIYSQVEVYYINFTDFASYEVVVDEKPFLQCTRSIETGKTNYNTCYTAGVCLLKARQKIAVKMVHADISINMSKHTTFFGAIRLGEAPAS
Chain of Ectodysplasin-A (Homo sapiens), Q92838 A367T (Q92838 whole entry A367T): as the sequence (Q92838 whole entry R153H) above, with H153R, A367T counted along it
Chain of Zinc finger protein 212 (Homo sapiens), Q9UDV6 H293Y (Q9UDV6 whole entry H293Y): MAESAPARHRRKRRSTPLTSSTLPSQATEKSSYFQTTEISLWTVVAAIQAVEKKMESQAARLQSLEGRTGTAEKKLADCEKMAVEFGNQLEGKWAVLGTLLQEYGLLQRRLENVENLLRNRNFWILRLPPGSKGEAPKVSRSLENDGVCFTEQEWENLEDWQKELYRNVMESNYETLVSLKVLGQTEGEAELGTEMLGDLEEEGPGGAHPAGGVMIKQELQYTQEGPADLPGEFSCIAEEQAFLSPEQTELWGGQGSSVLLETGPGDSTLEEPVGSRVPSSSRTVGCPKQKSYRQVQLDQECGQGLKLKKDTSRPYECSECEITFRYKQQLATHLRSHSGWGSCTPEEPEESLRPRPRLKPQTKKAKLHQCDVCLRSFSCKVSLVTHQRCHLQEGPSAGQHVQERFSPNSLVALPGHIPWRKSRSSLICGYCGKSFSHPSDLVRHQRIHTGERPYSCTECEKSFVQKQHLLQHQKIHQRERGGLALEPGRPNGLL
Chain of vatl_human ATP6V0C (P27449 whole entry): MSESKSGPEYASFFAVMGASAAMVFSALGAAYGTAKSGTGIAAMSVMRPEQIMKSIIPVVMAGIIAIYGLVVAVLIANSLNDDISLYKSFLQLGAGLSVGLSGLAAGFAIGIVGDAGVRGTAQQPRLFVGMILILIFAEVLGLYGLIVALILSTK
Chain of emp3_human EMP3 (P54852 whole entry): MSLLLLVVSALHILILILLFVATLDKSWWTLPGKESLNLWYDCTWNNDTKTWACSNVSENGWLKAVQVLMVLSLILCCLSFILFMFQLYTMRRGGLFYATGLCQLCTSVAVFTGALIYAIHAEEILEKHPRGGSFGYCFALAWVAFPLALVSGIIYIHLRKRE
Chain of Zinc finger protein 212 (Homo sapiens), Q9UDV6 E225K (Q9UDV6 whole entry E225K): as the sequence (Q9UDV6 whole entry H293Y) above, with E225K, Y293H counted along it
Chain of ppla_human PLN (P26678 whole entry): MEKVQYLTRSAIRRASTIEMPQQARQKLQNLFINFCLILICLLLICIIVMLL
Chain of mal_human MAL (P21145 whole entry): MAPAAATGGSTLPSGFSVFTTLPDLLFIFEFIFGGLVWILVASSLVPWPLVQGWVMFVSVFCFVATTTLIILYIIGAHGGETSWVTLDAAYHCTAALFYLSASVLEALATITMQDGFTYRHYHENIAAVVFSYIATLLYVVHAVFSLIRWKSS

Ectodysplasin-A (Homo sapiens), Q92838 A367T
with no effect: [1] | [2] | [3] | [4] | [5]

Ectodysplasin-A (Homo sapiens), Q92838 R153H
with no effect: [1] | [2] | [3] | [4] | [5]

FAD synthase (Homo sapiens), Q8NFF5 R437H
with no effect: [6]

NEDD4-like E3 ubiquitin-protein ligase WWP2 (Homo sapiens), O00308 H401R
with no effect: [7] | [8] | [9] | [10]

NEDD4-like E3 ubiquitin-protein ligase WWP2 (Homo sapiens), O00308 R215W
with no effect: [7] | [8] | [9] | [10]

RNA-binding protein FXR2 (Homo sapiens), P51116 R483Q
with no effect: [11] | [12]

Tripeptidyl-peptidase 2 (Homo sapiens), P29144 T998R
with no effect: [13] | [14] | [15]

Tripeptidyl-peptidase 2 (Homo sapiens), P29144 V1121I
with no effect: [13] | [14] | [15]

Zinc finger protein 212 (Homo sapiens), Q9UDV6 E225K
with no effect: [16] | [17]

Zinc finger protein 212 (Homo sapiens), Q9UDV6 H293Y
with no effect: [16] | [17]
